Numbering of substitutions follows the chain as printed. Names may count otherwise.
B1: α0α1 Q88A (domain or fragment, human, UniProt P02549 2-163, looked up)
chain: EQFPKETVVESSGPKVLETAEEIQERRAEVLTRYQSFKERVAERGQKLEDSYHLQVFKRDADDLGKWIMEKVNILTDKSYEDPTNIQGKYQKHQSLEAEVQTKSRLMSELEKTREERFTMGHSAHEETKAHIEELRHLWDLLLELTLEKGDQLLRALKFQQY
notes: mutant of m1; also called Q29A; source: E. coli C41(DE3), purified (Ni2+ agarose, thrombin cleavage, gel filtration)
B2: α0α1 L91A (domain or fragment, human, UniProt P02549 2-163, looked up)
chain: B1 chain with A28Q, L31A
notes: mutant of m1; also called L32A; source: E. coli C41(DE3), purified (Ni2+ agarose, thrombin cleavage, gel filtration)
B3: α0α1 Y94L (domain or fragment, human, UniProt P02549 2-163, looked up)
chain: B1 chain with A28Q, Y34L
notes: mutant of m1; also called Y35L; source: E. coli C41(DE3), purified (Ni2+ agarose, thrombin cleavage, gel filtration)
B4: α0α1 Y94A (domain or fragment, human, UniProt P02549 2-163, looked up)
chain: B1 chain with A28Q, Y34A
notes: mutant of m1; also called Y35A; source: E. coli C41(DE3), purified (Ni2+ agarose, thrombin cleavage, gel filtration)
B5: α0α1 F97A (domain or fragment, human, UniProt P02549 2-163, looked up)
chain: B1 chain with A28Q, F37A
notes: mutant of m1; also called F38A; source: E. coli C41(DE3), purified (Ni2+ agarose, thrombin cleavage, gel filtration)
B6: α0α1 R104A (domain or fragment, human, UniProt P02549 2-163, looked up)
chain: B1 chain with A28Q, R44A
notes: mutant of m1; also called R45A; source: E. coli C41(DE3), purified (Ni2+ agarose, thrombin cleavage, gel filtration)
B7: α0α1 V101A (domain or fragment, human, UniProt P02549 2-163, looked up)
chain: B1 chain with A28Q, V41A
notes: mutant of m1; also called V42A; source: E. coli C41(DE3), purified (Ni2+ agarose, thrombin cleavage, gel filtration)
B8: α0α1 E85A (domain or fragment, human, UniProt P02549 2-163, looked up)
chain: B1 chain with E25A, A28Q
notes: mutant of m1; also called E26A; source: E. coli C41(DE3), purified (Ni2+ agarose, thrombin cleavage, gel filtration)
B9: α0α1 R87G (domain or fragment, human, UniProt P02549 2-163, looked up)
chain: B1 chain with R27G, A28Q
notes: mutant of m1; also called R28G; source: E. coli C41(DE3), purified (Ni2+ agarose, thrombin cleavage, gel filtration)
B10: α0α1 T92G (domain or fragment, human, UniProt P02549 2-163, looked up)
chain: B1 chain with A28Q, T32G
notes: mutant of m1; also called T33G; source: E. coli C41(DE3), purified (Ni2+ agarose, thrombin cleavage, gel filtration)
B11: α0α1 Q106G (domain or fragment, human, UniProt P02549 2-163, looked up)
chain: B1 chain with A28Q, Q46G
notes: mutant of m1; also called Q47G; source: E. coli C41(DE3), purified (Ni2+ agarose, thrombin cleavage, gel filtration)
B12: α0α1 E85G (domain or fragment, human, UniProt P02549 2-163, looked up)
chain: B1 chain with E25G, A28Q
notes: mutant of m1; also called E26G; source: E. coli C41(DE3), purified (Ni2+ agarose, thrombin cleavage, gel filtration)
B13: α0α1 E103A (domain or fragment, human, UniProt P02549 2-163, looked up)
chain: B1 chain with A28Q, E43A
notes: mutant of m1; also called E44A; source: E. coli C41(DE3), purified (Ni2+ agarose, thrombin cleavage, gel filtration)
B14: α0α1 Q95G (domain or fragment, human, UniProt P02549 2-163, looked up)
chain: B1 chain with A28Q, Q35G
notes: mutant of m1; also called Q36G; source: E. coli C41(DE3), purified (Ni2+ agarose, thrombin cleavage, gel filtration)
B15: α0α1 T92A (domain or fragment, human, UniProt P02549 2-163, looked up)
chain: B1 chain with A28Q, T32A
notes: mutant of m1; also called T33A; source: E. coli C41(DE3), purified (Ni2+ agarose, thrombin cleavage, gel filtration)
B16: α0α1 E99A (domain or fragment, human, UniProt P02549 2-163, looked up)
chain: B1 chain with A28Q, E39A
notes: mutant of m1; also called E40A; source: E. coli C41(DE3), purified (Ni2+ agarose, thrombin cleavage, gel filtration)
B17: α0α1 E103G (domain or fragment, human, UniProt P02549 2-163, looked up)
chain: B1 chain with A28Q, E43G
notes: mutant of m1; also called E44G; source: E. coli C41(DE3), purified (Ni2+ agarose, thrombin cleavage, gel filtration)
B18: α0α1 Q95A (domain or fragment, human, UniProt P02549 2-163, looked up)
chain: B1 chain with A28Q, Q35A
notes: mutant of m1; also called Q36A; source: E. coli C41(DE3), purified (Ni2+ agarose, thrombin cleavage, gel filtration)
B19: α0α1 E99G (domain or fragment, human, UniProt P02549 2-163, looked up)
chain: B1 chain with A28Q, E39G
notes: mutant of m1; also called E40G; source: E. coli C41(DE3), purified (Ni2+ agarose, thrombin cleavage, gel filtration)
B20: α0α1 Q106A (domain or fragment, human, UniProt P02549 2-163, looked up)
chain: B1 chain with A28Q, Q46A
notes: mutant of m1; also called Q47A; source: E. coli C41(DE3), purified (Ni2+ agarose, thrombin cleavage, gel filtration)

The binders below were run against T1, β16β17 (erythrocyte β-spectrin residues 1898–2083), wild type (human, UniProt P11277 1898-2083) (assay: ITC; β16β17 at 25–50 μM in the cell titrated with 15–20 injections to 2–2.5 eq of α0α1; one-site binding model; PBS (50 mM sodium phosphate, 150 mM NaCl, pH 7.04), 25 °C; mutants only against the wild-type partner). Details: both partners purified.
T1 construct: erythrocyte β-spectrin, human, residues 1898-2083 (β16 plus the incomplete 17th domain); synthetic gene (GenScript) in a modified pRSETA plasmid; source: E. coli C41(DE3), purified (Ni2+ agarose, thrombin cleavage, gel filtration)
T1 sequence (looked up): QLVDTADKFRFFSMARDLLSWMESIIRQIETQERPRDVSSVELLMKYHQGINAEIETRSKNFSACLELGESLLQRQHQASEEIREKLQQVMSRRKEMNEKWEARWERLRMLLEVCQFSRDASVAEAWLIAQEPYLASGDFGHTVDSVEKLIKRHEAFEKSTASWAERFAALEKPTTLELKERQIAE
A Ka of 1e+06 M⁻¹ was found for B1 in this work. A Ka of 1.3e+06 M⁻¹ was found for B2 in this work. A Ka of 4.4e+06 M⁻¹ was found for B3 in this work. A Ka of 670000 M⁻¹ was found for B4 in this work. A Ka of 58000 M⁻¹ was found for B5 in this work. A Ka of 6.7e+06 M⁻¹ was found for B6 in this work. A Ka of 100000 M⁻¹ was found for B7 in this work.

Biological target: T1, β16β17 (erythrocyte β-spectrin residues …)
Assay: as above
Details: both partners purified
Remark: another data set of the same source
A Ka of 1.2e+06 M⁻¹ was found for B8 in this work. A Ka of 4e+06 M⁻¹ was found for B9 in this work. A Ka of 3.3e+06 M⁻¹ was found for B10 in this work. A Ka of 200000 M⁻¹ was found for B11 in this work. A Ka of 830000 M⁻¹ was found for B12 in this work. A Ka of 810000 M⁻¹ was found for B13 in this work. A Ka of 2e+06 M⁻¹ was found for B14 in this work. A Ka of 670000 M⁻¹ was found for B15 in this work. A Ka of 900000 M⁻¹ was found for B16 in this work. A Ka of 220000 M⁻¹ was found for B17 in this work. A Ka of 2.29e+06 M⁻¹ was found for B18 in this work. A Ka of 800000 M⁻¹ was found for B19 in this work. A Ka of 1.3e+06 M⁻¹ was found for B20 in this work.

Source: publication PMC9082959, “Mechanism of Assembly of the Non-Covalent Spectrin Tetramerization Domain from Intrinsically Disordered Partners” (Journal of molecular biology, 2013)
